# Target: pyruvate kinase PKM (PKM2), endogenous in PANC‐1 cells (human (endogenous in PANC-1)) (UniProt P14618)
# Test: western blotting of monomers and dimers; AsPC-1 and PANC-1 cells transduced with HACD2 WT, HACD2 MUT or vector, or with HACD2 knockdown; how dimers were kept on the gel is not told
# Chain of pyruvate kinase PKM (PKM2), endogenous in PANC‐1 cells, P14618 1-531 (natural protein; other documents disagree on this pair) (P14618 whole entry): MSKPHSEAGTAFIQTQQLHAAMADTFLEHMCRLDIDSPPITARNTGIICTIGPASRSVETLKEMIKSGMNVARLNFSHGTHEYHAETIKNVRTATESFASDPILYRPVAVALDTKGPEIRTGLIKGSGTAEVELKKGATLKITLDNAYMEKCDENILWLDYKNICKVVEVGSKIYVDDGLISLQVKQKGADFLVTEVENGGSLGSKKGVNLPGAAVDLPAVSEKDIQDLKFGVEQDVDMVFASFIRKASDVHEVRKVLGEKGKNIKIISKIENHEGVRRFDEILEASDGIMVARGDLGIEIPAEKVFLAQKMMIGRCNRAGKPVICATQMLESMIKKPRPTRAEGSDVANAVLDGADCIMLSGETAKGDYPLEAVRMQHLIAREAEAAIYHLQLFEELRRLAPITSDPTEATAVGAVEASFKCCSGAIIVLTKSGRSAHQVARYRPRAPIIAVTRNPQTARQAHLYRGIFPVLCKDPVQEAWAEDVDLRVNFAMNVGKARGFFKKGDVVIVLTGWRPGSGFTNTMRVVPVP
substance,measurement,value
"pyruvate kinase PKM (PKM2), endogenous in PANC‐1 cells, P14618 1-531 (natural protein; other documents disagree on this pair)",stoichiometry N,2

# — paper PMC11904967
